Assay results: patent publication US20190010232A1 (Eli Lilly, published 2019)

Assays:
[1] = molecular target: PD-L1 expressed on cells (UniProt Q9NZQ7 19-290, limits assumed); test: cell-based or functional assay
[2] = molecular target: T1, human PD-L1-Fc (R&D Systems, cat#156-B7) (human, UniProt Q9NZQ7 19-239); test: ELISA, plate coated with human PD-L1-Fc, detection with anti-human IgG F(ab')2-HRP
T1 construct: Bought reagent; both are treated here as the same molecule; also called PD-L1 ligand; not shown: Fc part of the bought fusion protein
T1 sequence (Q9NZQ7 19-239 limits assumed): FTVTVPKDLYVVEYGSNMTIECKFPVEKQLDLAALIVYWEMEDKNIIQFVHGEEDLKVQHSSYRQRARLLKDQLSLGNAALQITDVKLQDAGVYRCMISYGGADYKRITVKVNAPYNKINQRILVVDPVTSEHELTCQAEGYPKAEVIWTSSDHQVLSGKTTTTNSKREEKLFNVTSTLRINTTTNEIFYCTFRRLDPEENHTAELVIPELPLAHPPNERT

PD-L1 expressed on cells, sequence (Q9NZQ7 19-290 limits assumed): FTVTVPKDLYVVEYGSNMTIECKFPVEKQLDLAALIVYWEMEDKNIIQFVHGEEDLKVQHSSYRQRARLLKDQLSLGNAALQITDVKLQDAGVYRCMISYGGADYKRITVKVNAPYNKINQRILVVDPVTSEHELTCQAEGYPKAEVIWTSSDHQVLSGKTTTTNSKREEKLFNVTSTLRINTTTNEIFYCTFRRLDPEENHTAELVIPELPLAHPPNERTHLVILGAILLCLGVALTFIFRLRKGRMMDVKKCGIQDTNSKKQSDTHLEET

- EC50, PD-1/NFAT Reporter Jurkat T cell assay with PD-L1 positive T cell activator CHO cells [1]: 1.92 nM
- EC50 [2]: 0.47 nM
B1: parent PD-L1 antibody (as IgG1-EN homodimer) (antibody, V domains shown)
VH: QVQLVQSGAEVKKPGSSVKVSCKASGGTFSSYAISWVRQAPGQGLEWMGGIIPIFGTANYAQKFQGRVTITADKSTSTAYMELSSLRSEDTAVYYCARSPDYSPYYYYGMDVWGQGTTVTVSS
VL: QSVLTQPPSASGTPGQRVTISCSGSSSNIGSNTVNWYQQLPGTAPKLLIYGNSNRPSGVPDRFSGSKSGTSASLAISGLQSEDEADYYCQSYDSSLSGSVFGGGIKLTVL
notes: IgG1-EN homodimer; parent of the anti-PD-L1 arm of the bispecific antibodies; also called parental PD-L1 Ab; parental anti-PD-L1 antibody
